Assays:
[1] = biological target: T1, human CR2 on primary human cells (B cells in PBMCs; tonsil follicular dendritic cells) (human, UniProt P20023 21-1033); test: flow cytometry; inhibition of C3dg:streptavidin-APC ligand complex binding to primary human tonsil FDCs, mAb pre-incubated
T1 construct: Endogenous CR2 on primary human CD20+ B cells or tonsil FDCs; also called CD21
T1 sequence: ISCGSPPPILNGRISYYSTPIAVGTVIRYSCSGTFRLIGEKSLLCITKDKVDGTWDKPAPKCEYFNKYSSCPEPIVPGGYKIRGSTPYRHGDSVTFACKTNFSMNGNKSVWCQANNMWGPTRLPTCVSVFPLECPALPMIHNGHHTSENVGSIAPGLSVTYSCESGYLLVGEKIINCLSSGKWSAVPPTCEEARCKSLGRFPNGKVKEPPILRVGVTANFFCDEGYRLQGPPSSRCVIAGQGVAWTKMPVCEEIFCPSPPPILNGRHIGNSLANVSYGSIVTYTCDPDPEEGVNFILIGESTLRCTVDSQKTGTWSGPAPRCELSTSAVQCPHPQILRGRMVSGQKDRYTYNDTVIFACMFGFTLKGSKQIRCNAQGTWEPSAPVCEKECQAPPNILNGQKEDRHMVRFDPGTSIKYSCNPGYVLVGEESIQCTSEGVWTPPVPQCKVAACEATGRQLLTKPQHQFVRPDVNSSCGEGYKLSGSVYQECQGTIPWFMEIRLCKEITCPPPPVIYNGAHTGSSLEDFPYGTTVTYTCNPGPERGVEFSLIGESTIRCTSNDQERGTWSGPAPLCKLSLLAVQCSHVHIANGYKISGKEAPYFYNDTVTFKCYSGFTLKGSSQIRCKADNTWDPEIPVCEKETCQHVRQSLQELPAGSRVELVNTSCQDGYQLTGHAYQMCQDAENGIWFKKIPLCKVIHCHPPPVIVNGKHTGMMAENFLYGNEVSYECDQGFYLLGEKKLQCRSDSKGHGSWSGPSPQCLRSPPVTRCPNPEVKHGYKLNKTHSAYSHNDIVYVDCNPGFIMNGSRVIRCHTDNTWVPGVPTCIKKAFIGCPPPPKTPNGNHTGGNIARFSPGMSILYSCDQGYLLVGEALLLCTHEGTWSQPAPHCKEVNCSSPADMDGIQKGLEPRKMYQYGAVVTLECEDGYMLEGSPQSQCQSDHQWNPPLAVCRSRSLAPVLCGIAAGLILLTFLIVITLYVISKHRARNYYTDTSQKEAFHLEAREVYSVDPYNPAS

[2] = biological target: T1, human CR2 on primary human cells (B …); test: flow cytometry on primary human tonsil FDCs; unlabelled mAb 1053 titrated, then saturating mAb 1053-PE (1 ug/ml)
[3] = biological target: T1, human CR2 on primary human cells (B …); test: flow cytometry; inhibition of serum-opsonised PnPS14 binding to CD20+ B cells in human PBMCs, mAb pre-incubated
[4] = biological target: T1, human CR2 on primary human cells (B …); test: flow cytometry; inhibition of C3dg:Streptavidin-APC complex binding to CD20+ B cells in human PBMCs, mAb pre-incubated
[5] = biological target: T2, recombinant soluble human CR2 (human, UniProt P20023 21-971, limits assumed); test: SPR (BIACORE T200), HEK-expressed antibody captured on Protein A, soluble CR2 as analyte, 25 C, equilibrium model
T2 construct: it includes the transmembrane and cytoplasmic parts, which a soluble form would lack; also called human CR2 antigen
T2 sequence: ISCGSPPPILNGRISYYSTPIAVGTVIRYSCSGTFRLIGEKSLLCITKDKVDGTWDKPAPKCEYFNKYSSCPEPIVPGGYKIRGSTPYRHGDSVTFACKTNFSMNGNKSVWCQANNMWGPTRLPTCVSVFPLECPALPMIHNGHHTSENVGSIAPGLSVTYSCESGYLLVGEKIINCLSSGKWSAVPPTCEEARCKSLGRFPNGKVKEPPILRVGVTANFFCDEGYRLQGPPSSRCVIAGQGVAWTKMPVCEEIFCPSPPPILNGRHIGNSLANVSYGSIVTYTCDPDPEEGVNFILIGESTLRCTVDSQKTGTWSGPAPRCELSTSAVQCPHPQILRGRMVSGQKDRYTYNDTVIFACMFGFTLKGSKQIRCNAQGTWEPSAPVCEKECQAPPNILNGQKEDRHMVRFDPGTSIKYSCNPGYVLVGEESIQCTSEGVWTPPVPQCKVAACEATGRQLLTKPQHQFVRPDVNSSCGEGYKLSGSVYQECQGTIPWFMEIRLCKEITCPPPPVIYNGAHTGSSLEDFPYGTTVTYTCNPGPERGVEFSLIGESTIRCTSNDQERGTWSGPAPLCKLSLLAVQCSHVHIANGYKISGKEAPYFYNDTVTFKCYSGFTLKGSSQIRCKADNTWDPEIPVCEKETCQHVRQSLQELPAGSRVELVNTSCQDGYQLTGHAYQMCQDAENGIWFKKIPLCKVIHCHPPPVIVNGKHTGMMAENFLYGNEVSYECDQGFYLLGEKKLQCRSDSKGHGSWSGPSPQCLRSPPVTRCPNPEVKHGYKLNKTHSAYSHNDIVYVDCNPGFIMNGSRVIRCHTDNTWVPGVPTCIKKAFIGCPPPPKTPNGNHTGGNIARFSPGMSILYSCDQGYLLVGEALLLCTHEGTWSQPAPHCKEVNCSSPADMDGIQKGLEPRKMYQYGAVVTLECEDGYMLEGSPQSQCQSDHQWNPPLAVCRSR

[6] = biological target: T3, recombinant soluble cynomolgus macaque CR2 (cynomolgus macaque, UniProt A0A2K5URG6 21-972); test: as above
T3 construct: also called Cyno CR2; cyno CR2 antigen
T3 sequence: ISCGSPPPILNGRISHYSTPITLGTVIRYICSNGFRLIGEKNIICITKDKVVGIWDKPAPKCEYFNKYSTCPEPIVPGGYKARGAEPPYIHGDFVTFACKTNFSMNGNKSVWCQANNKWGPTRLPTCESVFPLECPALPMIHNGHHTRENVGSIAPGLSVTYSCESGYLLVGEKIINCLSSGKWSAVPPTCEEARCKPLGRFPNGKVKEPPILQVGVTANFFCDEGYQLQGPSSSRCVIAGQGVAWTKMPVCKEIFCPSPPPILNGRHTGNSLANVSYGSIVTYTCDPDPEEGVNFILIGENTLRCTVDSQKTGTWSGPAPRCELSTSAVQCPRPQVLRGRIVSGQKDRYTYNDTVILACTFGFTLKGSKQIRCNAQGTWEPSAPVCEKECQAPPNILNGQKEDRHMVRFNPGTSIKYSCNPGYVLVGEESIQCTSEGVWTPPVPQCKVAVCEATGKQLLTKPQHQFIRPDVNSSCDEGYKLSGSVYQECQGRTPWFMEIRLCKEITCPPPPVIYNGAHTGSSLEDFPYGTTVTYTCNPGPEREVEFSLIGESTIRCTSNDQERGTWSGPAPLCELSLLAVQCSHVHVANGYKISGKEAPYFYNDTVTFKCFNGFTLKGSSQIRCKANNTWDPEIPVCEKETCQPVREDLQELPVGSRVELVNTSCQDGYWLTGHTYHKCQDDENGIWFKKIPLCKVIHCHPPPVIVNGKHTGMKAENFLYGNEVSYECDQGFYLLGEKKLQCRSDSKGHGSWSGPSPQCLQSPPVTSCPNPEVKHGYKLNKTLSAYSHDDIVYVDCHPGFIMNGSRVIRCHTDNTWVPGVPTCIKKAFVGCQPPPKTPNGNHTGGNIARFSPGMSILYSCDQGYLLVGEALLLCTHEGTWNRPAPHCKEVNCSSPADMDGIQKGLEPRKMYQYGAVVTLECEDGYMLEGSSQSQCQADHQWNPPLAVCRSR

B1: mAb 1053 (antibody, human IgG1, kappa, V domains shown)
VH: QLQLQESGPGLVKPSETLSLTCTVSGGSISSDSYYWGWIRQPPGKGLEWIGSIHYSGSTYYNPPLESRVTISVDTSKNQFSLKLSSVTAADTAVYYCAREGGPRHGWSWGQGTLVTVSS
VL: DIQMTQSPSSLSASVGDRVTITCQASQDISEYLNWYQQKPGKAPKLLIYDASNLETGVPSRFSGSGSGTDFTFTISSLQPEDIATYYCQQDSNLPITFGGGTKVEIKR
notes: CHO-expressed unless stated otherwise
IC50 [1]: 0.047 nM | EC50 [2]: 0.0622 nM | IC50 [3]: 0.0379 nM | IC50 [4]: 0.0119 nM | Kd [5]: 0.257 nM | Kd [6]: 0.287 nM

Reference: US20230032643A1 (GlaxoSmithKline, published 2023)
